According to article PMC4031500:

Molecular target: chB6 (Bu-1), chicken B-lymphocyte allotypic marker (chicken (endogenous in DT40))
Experiment: non-reducing against reducing SDS-PAGE with Western blot; chB6 immunoprecipitated from DT40 lysate, SDS-PAGE without reducing agent, blot with anti-chB6 peptide antibody; compared with membrane fractions run with 2-mercaptoethanol

- stoichiometry N: 2
Substance: chB6 (Bu-1), chicken B-lymphocyte allotypic marker (natural protein)
